According to patent US20160257732A1 (published 2016):
“And” between values parts separate entries of the source, which are not always exact repeats. Identical values can stand only once. Like-named read-outs stand apart in the source and are kept apart here.

Columns and labels:
Assay in all cases: cell-based or functional assay
[1] = target: HA of A/Fort Monmouth/1/47 (H1N1) (influenza A virus)
[2] = target: HA of A/New Jersey/8/76 (H1N1) (influenza A virus)
[3] = target: HA of A/Kawasaki/9/86 (H1N1) (influenza A virus)
[4] = target: HA of ca A/Texas/36/91 (H1N1) (influenza A virus)
[5] = target: HA of ca A/Beijing/262/95 (H1N1) (influenza A virus)
[6] = target: HA of ca A/New Caledonia/20/99 (H1N1) (influenza A virus)
[7] = target: HA of ca A/swine/Missouri/06 (H2N3) (influenza A virus)
[8] = target: HA of ca A/Vietnam/1203/04 (H5N1) (influenza A virus)
[9] = target: HA of ca A/Hong Kong/213/03 (H5N1) (influenza A virus)
[10] = target: HA of ca A/teal/Hong Kong/W312/97 (H6N1) (influenza A virus)
[11] = target: T1, HA of ca A/chicken/Hong Kong/G9/97 (H9N2) (influenza A virus)
[12] = target: HA of A/Hong Kong/8/68 (H3N2) (influenza A virus)
[13] = target: HA of A/Victoria/3/75 (H3N2) (influenza A virus)
[14] = target: HA of ca A/Sydney/5/97 (H3N2) (influenza A virus)
[15] = target: HA of ca A/Panama/2007/99 (H3N2) (influenza A virus)
[16] = target: HA of A/Wyoming/03/03 (H3N2) (influenza A virus)
[17] = target: HA of A/Wisconsin/67/05 (H3N2) (influenza A virus)
[18] = target: HA of ca A/Perth/16/09 (H3N2) (influenza A virus)
[19] = target: HA of ca A/Netherlands/219/03 (H7N7) (influenza A virus)
[20] = target: T2, HA of ca A/Brit. Columbia/CN-6/04 (H7N3-LP) (influenza A virus)
[21] = target: HA of A/Fort Monmouth/1/47 (H1N1) (influenza A virus); remark: listed apart in the source
[22] = target: HA of A/New Jersey/8/76 (H1N1) (influenza A virus); remark: listed apart in the source
[23] = target: HA of A/Kawasaki/9/86 (H1N1) (influenza A virus); remark: listed apart in the source
[24] = target: HA of ca A/Texas/36/91 (H1N1) (influenza A virus); remark: listed apart in the source
[25] = target: HA of ca A/Beijing/262/95 (H1N1) (influenza A virus); remark: listed apart in the source
[26] = target: HA of ca A/New Caledonia/20/99 (H1N1) (influenza A virus); remark: listed apart in the source
HA of virus H1-BS10 = target: HA of virus H1-BS10
[27] = target: HA of ca A/Japan/57 (H2N2) (influenza A virus)
[28] = target: HA of ca A/swine/Missouri/06 (H2N3) (influenza A virus); remark: listed apart in the source
[29] = target: HA of ca A/Vietnam/1203/04 (H5N1) (influenza A virus); remark: listed apart in the source
[30] = target: HA of ca A/Hong Kong/213/03 (H5N1) (influenza A virus); remark: listed apart in the source
[31] = target: HA of ca A/mallard/Alberta/89/85 (H6N2) (influenza A virus)
[32] = target: HA of ca A/teal/Hong Kong/W312/97 (H6N1) (influenza A virus); remark: listed apart in the source
[33] = target: T1, HA of ca A/chicken/Hong Kong/G9/97 …; remark: listed apart in the source
[34] = target: HA of A/Hong Kong/8/68 (H3N2) (influenza A virus); remark: listed apart in the source
[35] = target: HA of A/Victoria/3/75 (H3N2) (influenza A virus); remark: listed apart in the source
[36] = target: HA of ca A/Sydney/5/97 (H3N2) (influenza A virus); remark: listed apart in the source
[37] = target: HA of ca A/Panama/2007/99 (H3N2) (influenza A virus); remark: listed apart in the source
[38] = target: HA of A/Wisconsin/67/05 (H3N2) (influenza A virus); remark: listed apart in the source
[39] = target: HA of ca A/Perth/16/09 (H3N2) (influenza A virus); remark: listed apart in the source
[40] = target: HA of A/Victoria/361/11 (H3N2) (influenza A virus)
[41] = target: HA of ca A/Netherlands/219/03 (H7N7) (influenza A virus); remark: listed apart in the source
[42] = target: T2, HA of ca A/Brit. Columbia/CN-6/04 …; remark: listed apart in the source
[43] = target: HA of ca A/Anhui/1/13 (H7N9) (influenza A virus)
[44] = target: HA of swine-origin A/Minnesota/11/2010 H3N2 virus (influenza A virus)

B1: Antibody 3 (antibody, V domains shown)
VH: QVQLQESGPGLVKPSQTLSLTCAISGDSVSSNNAVWNWIRQSPSRGLEWLGRTYYRSKWYNDYAESVKSRITVNPDTSKNQFSLHLKSVTPEDTAVFYCVRSGHITVFGVNVDAFDMWGQGTMVTVSS
VL: DIQMTQSPSSLSASVGDRVTITCRTSQSLSSYLHWYQQKPGKAPKLLIYAASSLQSGVPSRFSGSGSGTDFTLTISSLQPEDFATYYCQQSRTFGQGTKVEIK
[1]
  Neutralization IC50, H1-FM47: 0.92 µg/mL
[2]
  Neutralization IC50, H1-NJ76: 1.41 µg/mL
[3]
  Neutralization IC50, H1-Kaw86: 0.58 µg/mL
[4]
  Neutralization IC50, H1-TX91: 0.6 µg/mL
[5]
  Neutralization IC50, H1-BJ95: 3.41 µg/mL
[6]
  Neutralization IC50, H1-Ncal99: 0.79 µg/mL
[7]
  Neutralization IC50, H2-MO06: 2.27 µg/mL
[8]
  Neutralization IC50, H5-VM04: 2.11 µg/mL
[9]
  Neutralization IC50, H5-HK03: 4.64 µg/mL
[10]
  Neutralization IC50, H6-HK97: 1.77 µg/mL
[11]
  Neutralization IC50, H9-HK97: 1.79 µg/mL
[12]
  Neutralization IC50, H3-HK68: 0.68 µg/mL
[13]
  Neutralization IC50, H3-Vic75: 0.75 µg/mL
[14]
  Neutralization IC50, H3-Syd97: 3.75 µg/mL
[15]
  Neutralization IC50, H3-Pa99: 17.7 µg/mL
[16]
  Neutralization IC50, H3-Wy03: 0.63 µg/mL
[17]
  Neutralization IC50, H3-WI05: 2.44 µg/mL
[18]
  Neutralization IC50, H3-Perth09: 1.49 µg/mL
[19]
  Neutralization IC50, H7-NLD03: 4.78 µg/mL
[20]
  Neutralization IC50, H7-BC04: 4.72 µg/mL
[21]
  Neutralization IC50, H1-FM47: 1.04 µg/mL
[22]
  Neutralization IC50, H1-NJ76: 0.57 µg/mL
[23]
  Neutralization IC50, H1-Kaw86: 1.01 µg/mL
[24]
  Neutralization IC50, H1-TX91: 0.92 µg/mL
[25]
  Neutralization IC50, H1-BJ95: 2.98 µg/mL
[26]
  Neutralization IC50, H1-Ncal99: 1.16 µg/mL
HA of virus H1-BS10
  Neutralization IC50, H1-BS10: 2.16 µg/mL
[27]
  Neutralization IC50, H2-JP57: 0.46 µg/mL
[28]
  Neutralization IC50, H2-MO06: 1.09 µg/mL
[29]
  Neutralization IC50, H5-VM04: 1.19 µg/mL
[30]
  Neutralization IC50, H5-HK03: 0.71 µg/mL
[31]
  Neutralization IC50, H6-AB85: 0.69 µg/mL
[32]
  Neutralization IC50, H6-HK97: 0.63 µg/mL
[33]
  Neutralization IC50, H9-HK97: 1.18 µg/mL
[34]
  Neutralization IC50, H3-HK68: 1.37 µg/mL
[35]
  Neutralization IC50, H3-Vic75: 1.12 µg/mL
[36]
  Neutralization IC50, H3-Syd97: 6.5 µg/mL
[37]
  Neutralization IC50, H3-Pa99: 9 µg/mL
[38]
  Neutralization IC50, H3-WI05: 2.62 µg/mL
[39]
  Neutralization IC50, H3-Perth09: 1.3 µg/mL
[40]
  Neutralization IC50, H3-VC11: 3.4 µg/mL
[41]
  Neutralization IC50, H7-NLD03: 4.74 µg/mL
[42]
  Neutralization IC50, H7-BC04: 2.95 µg/mL
[43]
  Neutralization IC50, H7-ANU13: 4.26 µg/mL
[44]
  Neutralizing activity IC50, swine-origin A/Minnesota/11/2010: 2.2 µg/mL and 4.2 µg/mL
